The values that follow come from the RNAGym collection of RNA variant scans (doi:10.1021/acssynbio.7b00057).

First the molecules themselves.
B1: Pistol ribozyme (parent)
chain: GGGUCGUUGUUCCAUAAUCGCGUGGAUAUGGCACGCAAGUUUCUACCGGGCACCGUAAAUGUCCGACUGGAGCCGUUCGGGCGGCUAUAAACAGACCUCAGGCCCGAAGCGUGGCGGCACCUGCCGCCGGUGGUAAAAAAGAUCGGAAGAGCACACGUCU

In this data set the parent is B1. In words: aptazyme ON/OFF ratio, guanine; higher = stronger switching; co-transcriptional cleavage with and without guanine.
Take GGGUCGUGUUACAAUAAUCGCGUGGAUAUGGCACGCAAGUUUCUACCGGGCACCGUAAAUGUCCGACUGGAGCCGUUCGGGCGGCUAUAAACAGACCUCAGGCCCGAAGCGUGGCGGCACCUGCCGCCGGUGGUAAAAAAGAUCGGAAGAGCACACGUCU: the “aptazyme ON/OFF ratio” value was 1.33.
For the variant GGGUCGUGUUACGAUAAUCGCGUGGAUAUGGCACGCAAGUUUCUACCGGGCACCGUAAAUGUCCGACUGGAGCCGUUCGGGCGGCUAUAAACAGACCUCAGGCCCGAAGCGUGGCGGCACCUGCCGCCGGUGGUAAAAAAGAUCGGAAGAGCACACGUCU, the “aptazyme ON/OFF ratio” value was determined as 1.06.
The figure for GGGUCGUGUUACUAUAAUCGCGUGGAUAUGGCACGCAAGUUUCUACCGGGCACCGUAAAUGUCCGACUGGAGCCGUUCGGGCGGCUAUAAACAGACCUCAGGCCCGAAGCGUGGCGGCACCUGCCGCCGGUGGUAAAAAAGAUCGGAAGAGCACACGUCU is 1.25; for GGGUCGUGUGGUAAUAAUCGCGUGGAUAUGGCACGCAAGUUUCUACCGGGCACCGUAAAUGUCCGACUGGAGCCGUUCGGGCGGCUAUAAACAGACCUCAGGCCCGAAGCGUGGCGGCACCUGCCGCCGGUGGUAAAAAAGAUCGGAAGAGCACACGUCU it is 1.09.
The figure for GGGUCGUGUGGUGAUAAUCGCGUGGAUAUGGCACGCAAGUUUCUACCGGGCACCGUAAAUGUCCGACUGGAGCCGUUCGGGCGGCUAUAAACAGACCUCAGGCCCGAAGCGUGGCGGCACCUGCCGCCGGUGGUAAAAAAGAUCGGAAGAGCACACGUCU is 1.09; for GGGUCGUGUGGUUAUAAUCGCGUGGAUAUGGCACGCAAGUUUCUACCGGGCACCGUAAAUGUCCGACUGGAGCCGUUCGGGCGGCUAUAAACAGACCUCAGGCCCGAAGCGUGGCGGCACCUGCCGCCGGUGGUAAAAAAGAUCGGAAGAGCACACGUCU it is 1.18; for GGGUCGUGUGGAAAUAAUCGCGUGGAUAUGGCACGCAAGUUUCUACCGGGCACCGUAAAUGUCCGACUGGAGCCGUUCGGGCGGCUAUAAACAGACCUCAGGCCCGAAGCGUGGCGGCACCUGCCGCCGGUGGUAAAAAAGAUCGGAAGAGCACACGUCU it is 1.07.
The figure for GGGUCGUGUGGAUAUAAUCGCGUGGAUAUGGCACGCAAGUUUCUACCGGGCACCGUAAAUGUCCGACUGGAGCCGUUCGGGCGGCUAUAAACAGACCUCAGGCCCGAAGCGUGGCGGCACCUGCCGCCGGUGGUAAAAAAGAUCGGAAGAGCACACGUCU is 1.05; for GGGUCGUGUGGAGAUAAUCGCGUGGAUAUGGCACGCAAGUUUCUACCGGGCACCGUAAAUGUCCGACUGGAGCCGUUCGGGCGGCUAUAAACAGACCUCAGGCCCGAAGCGUGGCGGCACCUGCCGCCGGUGGUAAAAAAGAUCGGAAGAGCACACGUCU it is 1.08.
With GGGUCGUGUUACCAUAAUCGCGUGGAUAUGGCACGCAAGUUUCUACCGGGCACCGUAAAUGUCCGACUGGAGCCGUUCGGGCGGCUAUAAACAGACCUCAGGCCCGAAGCGUGGCGGCACCUGCCGCCGGUGGUAAAAAAGAUCGGAAGAGCACACGUCU, the “aptazyme ON/OFF ratio” value worked out at 1.73.
As to GGGUCGUGUGGCUAUAAUCGCGUGGAUAUGGCACGCAAGUUUCUACCGGGCACCGUAAAUGUCCGACUGGAGCCGUUCGGGCGGCUAUAAACAGACCUCAGGCCCGAAGCGUGGCGGCACCUGCCGCCGGUGGUAAAAAAGAUCGGAAGAGCACACGUCU, the “aptazyme ON/OFF ratio” value came out at 1.02.
The figure for GGGUCGUGUGGCAAUAAUCGCGUGGAUAUGGCACGCAAGUUUCUACCGGGCACCGUAAAUGUCCGACUGGAGCCGUUCGGGCGGCUAUAAACAGACCUCAGGCCCGAAGCGUGGCGGCACCUGCCGCCGGUGGUAAAAAAGAUCGGAAGAGCACACGUCU is 1.04; for GGGUCGUGUGGCGAUAAUCGCGUGGAUAUGGCACGCAAGUUUCUACCGGGCACCGUAAAUGUCCGACUGGAGCCGUUCGGGCGGCUAUAAACAGACCUCAGGCCCGAAGCGUGGCGGCACCUGCCGCCGGUGGUAAAAAAGAUCGGAAGAGCACACGUCU it is 1.03; for GGGUCGUGUGGCCAUAAUCGCGUGGAUAUGGCACGCAAGUUUCUACCGGGCACCGUAAAUGUCCGACUGGAGCCGUUCGGGCGGCUAUAAACAGACCUCAGGCCCGAAGCGUGGCGGCACCUGCCGCCGGUGGUAAAAAAGAUCGGAAGAGCACACGUCU it is 1.07.
On to GGGUCGUGUGCUUAUAAUCGCGUGGAUAUGGCACGCAAGUUUCUACCGGGCACCGUAAAUGUCCGACUGGAGCCGUUCGGGCGGCUAUAAACAGACCUCAGGCCCGAAGCGUGGCGGCACCUGCCGCCGGUGGUAAAAAAGAUCGGAAGAGCACACGUCU, for which the “aptazyme ON/OFF ratio” value was determined as 1.03.
The figure for GGGUCGUGUUAGAAUAAUCGCGUGGAUAUGGCACGCAAGUUUCUACCGGGCACCGUAAAUGUCCGACUGGAGCCGUUCGGGCGGCUAUAAACAGACCUCAGGCCCGAAGCGUGGCGGCACCUGCCGCCGGUGGUAAAAAAGAUCGGAAGAGCACACGUCU is 1.13.
The figure for GGGUCGUGUUAGGAUAAUCGCGUGGAUAUGGCACGCAAGUUUCUACCGGGCACCGUAAAUGUCCGACUGGAGCCGUUCGGGCGGCUAUAAACAGACCUCAGGCCCGAAGCGUGGCGGCACCUGCCGCCGGUGGUAAAAAAGAUCGGAAGAGCACACGUCU is 1.23.
The figure for GGGUCGUGUUAGUAUAAUCGCGUGGAUAUGGCACGCAAGUUUCUACCGGGCACCGUAAAUGUCCGACUGGAGCCGUUCGGGCGGCUAUAAACAGACCUCAGGCCCGAAGCGUGGCGGCACCUGCCGCCGGUGGUAAAAAAGAUCGGAAGAGCACACGUCU is 1.18.
With GGGUCGUGUUAACAUAAUCGCGUGGAUAUGGCACGCAAGUUUCUACCGGGCACCGUAAAUGUCCGACUGGAGCCGUUCGGGCGGCUAUAAACAGACCUCAGGCCCGAAGCGUGGCGGCACCUGCCGCCGGUGGUAAAAAAGAUCGGAAGAGCACACGUCU, the “aptazyme ON/OFF ratio” value was 1.42.
With GGGUCGUGUUAGCAUAAUCGCGUGGAUAUGGCACGCAAGUUUCUACCGGGCACCGUAAAUGUCCGACUGGAGCCGUUCGGGCGGCUAUAAACAGACCUCAGGCCCGAAGCGUGGCGGCACCUGCCGCCGGUGGUAAAAAAGAUCGGAAGAGCACACGUCU the figure was 1.25; with GGGUCGUGUUAUCAUAAUCGCGUGGAUAUGGCACGCAAGUUUCUACCGGGCACCGUAAAUGUCCGACUGGAGCCGUUCGGGCGGCUAUAAACAGACCUCAGGCCCGAAGCGUGGCGGCACCUGCCGCCGGUGGUAAAAAAGAUCGGAAGAGCACACGUCU, 1.36.
Regarding GGGUCGUGUGGGUAUAAUCGCGUGGAUAUGGCACGCAAGUUUCUACCGGGCACCGUAAAUGUCCGACUGGAGCCGUUCGGGCGGCUAUAAACAGACCUCAGGCCCGAAGCGUGGCGGCACCUGCCGCCGGUGGUAAAAAAGAUCGGAAGAGCACACGUCU, the “aptazyme ON/OFF ratio” value was found to be 1.09.
In the case of GGGUCGUGUGGGGAUAAUCGCGUGGAUAUGGCACGCAAGUUUCUACCGGGCACCGUAAAUGUCCGACUGGAGCCGUUCGGGCGGCUAUAAACAGACCUCAGGCCCGAAGCGUGGCGGCACCUGCCGCCGGUGGUAAAAAAGAUCGGAAGAGCACACGUCU, the “aptazyme ON/OFF ratio” value worked out at 1.17.
With GGGUCGUGUGGGAAUAAUCGCGUGGAUAUGGCACGCAAGUUUCUACCGGGCACCGUAAAUGUCCGACUGGAGCCGUUCGGGCGGCUAUAAACAGACCUCAGGCCCGAAGCGUGGCGGCACCUGCCGCCGGUGGUAAAAAAGAUCGGAAGAGCACACGUCU the figure was 1.07; with GGGUCGUGUGCCAAUAAUCGCGUGGAUAUGGCACGCAAGUUUCUACCGGGCACCGUAAAUGUCCGACUGGAGCCGUUCGGGCGGCUAUAAACAGACCUCAGGCCCGAAGCGUGGCGGCACCUGCCGCCGGUGGUAAAAAAGAUCGGAAGAGCACACGUCU, 1.02; with GGGUCGUGUGCCUAUAAUCGCGUGGAUAUGGCACGCAAGUUUCUACCGGGCACCGUAAAUGUCCGACUGGAGCCGUUCGGGCGGCUAUAAACAGACCUCAGGCCCGAAGCGUGGCGGCACCUGCCGCCGGUGGUAAAAAAGAUCGGAAGAGCACACGUCU, 1.03.
The figure for GGGUCGUGUGCCGAUAAUCGCGUGGAUAUGGCACGCAAGUUUCUACCGGGCACCGUAAAUGUCCGACUGGAGCCGUUCGGGCGGCUAUAAACAGACCUCAGGCCCGAAGCGUGGCGGCACCUGCCGCCGGUGGUAAAAAAGAUCGGAAGAGCACACGUCU is 1.04; for GGGUCGUGUUAAGAUAAUCGCGUGGAUAUGGCACGCAAGUUUCUACCGGGCACCGUAAAUGUCCGACUGGAGCCGUUCGGGCGGCUAUAAACAGACCUCAGGCCCGAAGCGUGGCGGCACCUGCCGCCGGUGGUAAAAAAGAUCGGAAGAGCACACGUCU it is 1.22; for GGGUCGUGUUAAAAUAAUCGCGUGGAUAUGGCACGCAAGUUUCUACCGGGCACCGUAAAUGUCCGACUGGAGCCGUUCGGGCGGCUAUAAACAGACCUCAGGCCCGAAGCGUGGCGGCACCUGCCGCCGGUGGUAAAAAAGAUCGGAAGAGCACACGUCU it is 1.18.
With GGGUCGUGUUAAUAUAAUCGCGUGGAUAUGGCACGCAAGUUUCUACCGGGCACCGUAAAUGUCCGACUGGAGCCGUUCGGGCGGCUAUAAACAGACCUCAGGCCCGAAGCGUGGCGGCACCUGCCGCCGGUGGUAAAAAAGAUCGGAAGAGCACACGUCU the figure was 1.1; with GGGUCGUGUGGUCAUAAUCGCGUGGAUAUGGCACGCAAGUUUCUACCGGGCACCGUAAAUGUCCGACUGGAGCCGUUCGGGCGGCUAUAAACAGACCUCAGGCCCGAAGCGUGGCGGCACCUGCCGCCGGUGGUAAAAAAGAUCGGAAGAGCACACGUCU, 1.2; with GGGUCGUGUGGACAUAAUCGCGUGGAUAUGGCACGCAAGUUUCUACCGGGCACCGUAAAUGUCCGACUGGAGCCGUUCGGGCGGCUAUAAACAGACCUCAGGCCCGAAGCGUGGCGGCACCUGCCGCCGGUGGUAAAAAAGAUCGGAAGAGCACACGUCU, 1.06.
As to GGGUCGUGUGGGCAUAAUCGCGUGGAUAUGGCACGCAAGUUUCUACCGGGCACCGUAAAUGUCCGACUGGAGCCGUUCGGGCGGCUAUAAACAGACCUCAGGCCCGAAGCGUGGCGGCACCUGCCGCCGGUGGUAAAAAAGAUCGGAAGAGCACACGUCU, the “aptazyme ON/OFF ratio” value amounted to 1.13.
With GGGUCGUGUUAUGAUAAUCGCGUGGAUAUGGCACGCAAGUUUCUACCGGGCACCGUAAAUGUCCGACUGGAGCCGUUCGGGCGGCUAUAAACAGACCUCAGGCCCGAAGCGUGGCGGCACCUGCCGCCGGUGGUAAAAAAGAUCGGAAGAGCACACGUCU the figure was 1.22; with GGGUCGUGUUAUAAUAAUCGCGUGGAUAUGGCACGCAAGUUUCUACCGGGCACCGUAAAUGUCCGACUGGAGCCGUUCGGGCGGCUAUAAACAGACCUCAGGCCCGAAGCGUGGCGGCACCUGCCGCCGGUGGUAAAAAAGAUCGGAAGAGCACACGUCU, 1.19; with GGGUCGUGUUAUUAUAAUCGCGUGGAUAUGGCACGCAAGUUUCUACCGGGCACCGUAAAUGUCCGACUGGAGCCGUUCGGGCGGCUAUAAACAGACCUCAGGCCCGAAGCGUGGCGGCACCUGCCGCCGGUGGUAAAAAAGAUCGGAAGAGCACACGUCU, 1.35.
